Measured values reported in patent publication US20050079503A1, “Binding domain of Siah (seven in absentia homolog) protein” (PETER MacCALLUM CANCER INSTITUTE, ST. VINCENT'S INSTITUTE …, priority 2001, published 2005).
Each block holds one molecule with its values, some of them ahead of it. No end group written: not given here. *: point of attachment. Biotin = O=C1N[C@H]2[C@H](CS[C@H]2CCCCC(=O)*)N1

Columns and labels:
[1] = biological target: T1, MBP-Siah1a-ZC fusion protein (mouse, UniProt P61092 80-282); assay: ELISA: biotinylated plectin peptide captured on Neutravidin-coated plate, bound MBP fusion detected with anti-MBP and HRP antibody, ABTS, A405
T1 construct: range 80-282; ZC = zinc fingers plus C-terminus, residues 80-282 of Siah1a, fused to MBP; also called Siah SBD; not shown: linker not described
T1 sequence (looked up): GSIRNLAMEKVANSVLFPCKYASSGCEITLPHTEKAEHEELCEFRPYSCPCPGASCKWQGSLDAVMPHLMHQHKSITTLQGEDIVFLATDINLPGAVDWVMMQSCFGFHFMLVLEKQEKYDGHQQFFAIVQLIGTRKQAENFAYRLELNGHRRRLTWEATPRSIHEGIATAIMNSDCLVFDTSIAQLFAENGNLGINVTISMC
Description: Siah SBD binding to the plectin peptide (Biotin-[…]-NH2 corresponding to residues 95-117 of human plectin) was assessed by capturing biotinylated peptide on a 96-well plate coated with 0.5 μg Neutravidin per well. Peptide was captured for 30 min at room temperature at a concentration of 4 μg/ml. MBP-Siah1a-ZC fusion protein was bound to the peptide for 50 min at room temperature (or the controls of buffer alone (PBS/tween 20) or mutant MBP-Siah1a-ZC containing a Leu211 to Arg mutation). Bound protein was quantitated by rabbit anti-MBP antibody (1:300 dilution), then HRP conjugated goat-anti-rabbit antibody. Detection utilised ABTS substrate read at A405.

Siah = biological target: T2, Siah (Mus musculus, UniProt P61092); assay: Interaction studies using bacterially expressed proteins; assay type: binding
T2 construct: made in house; host or cells: bacteria
T2 sequence (P61092 1-282): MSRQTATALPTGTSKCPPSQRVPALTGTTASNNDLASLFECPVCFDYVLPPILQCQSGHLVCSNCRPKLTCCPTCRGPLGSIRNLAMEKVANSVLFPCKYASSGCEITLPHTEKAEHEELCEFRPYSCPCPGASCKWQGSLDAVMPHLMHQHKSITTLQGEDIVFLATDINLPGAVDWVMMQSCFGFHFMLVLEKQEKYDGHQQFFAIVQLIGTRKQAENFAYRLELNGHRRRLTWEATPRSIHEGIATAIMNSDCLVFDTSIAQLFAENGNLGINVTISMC
Text: PHYL is known to interact and function with SINA, the Drosophila orthologue of mammalian Siah, in the targeted degradation of the transcriptional repressor tramtrack 88 (TTK88). Applicants have shown that it interacts similarly with mammalian Siah.

[2] = biological target: the molecule itself; assay: size exclusion chromatography (self-association of the Siah1a binding domain)
GST-PHYL108-130 = biological target: T3, GST-PHYL108-130 (Drosophila); assay: complex isolated by gel filtration on Superdex 200, components quantitated by N-terminal sequencing (five cycles)
T3 construct: also called PHYL peptide as a fusion protein with glutathione-S-transferase; not shown: glutathione-S-transferase (GST) fusion partner
T3 chain: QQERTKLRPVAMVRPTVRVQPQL
Text: The stoichiometry of interaction was investigated by isolating a complex of GST-PHYL108-130 and Siah1a SBD by gel filtration on Superdex 200 and quantitating the components by N-terminal sequencing.

[3] = biological target: T4, MBP-Siah1a fusion protein (mouse, UniProt P61092 1-282, limits assumed); assay: SPR, Biacore 2000; biotinylated peptide captured on immobilised neutravidin, MBP-Siah1a as analyte
T4 construct: not shown: linker to Siah1a not described
T4 sequence (looked up): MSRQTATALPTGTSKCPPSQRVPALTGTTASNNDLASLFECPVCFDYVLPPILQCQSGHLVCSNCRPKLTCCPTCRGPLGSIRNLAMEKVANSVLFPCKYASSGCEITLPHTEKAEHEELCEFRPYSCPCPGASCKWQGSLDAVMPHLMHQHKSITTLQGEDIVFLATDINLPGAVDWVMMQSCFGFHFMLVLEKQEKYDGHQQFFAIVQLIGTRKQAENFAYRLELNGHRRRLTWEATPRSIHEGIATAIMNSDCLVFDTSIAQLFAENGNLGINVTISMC
Text: The binding kinetics for Siah interaction with PHYL108-130 were monitored using surface plasmon resonance on a Biacore 2000. The biotinylated PHYL108-130 peptide was captured on the chip surface by immobilised neutravidin, and MBP-Siah1a was used as analyte.
To determine binding affinities, synthetic PHYL peptide was immobilised to a C5 BIAcore chip using two different strategies (direct chemical coupling through the free amino group on Lysine113 and binding to coupled avidin via an N-terminal biotin on the peptide) and interaction was measured directly by surface plasmon resonance. This method facilitated the measurement of association and dissociation rates, and the determination of an affinity constant (FIG. 26).

binding result [1]: binds
B1: plectin peptide (Biotin-ASLQRVRRPVAMVMPARRTPHVQ-NH2) (peptide)
peptide: Biotin-ASLQRVRRPVAMVMPARRTPHVQ-NH2
SMILES: CSCC[C@H](NC(=O)[C@H](C)NC(=O)[C@@H](NC(=O)[C@@H]1CCCN1C(=O)[C@H](CCCNC(=N)N)NC(=O)[C@H](CCCNC(=N)N)NC(=O)[C@@H](NC(=O)[C@H](CCCNC(=N)N)NC(=O)[C@H](CCC(N)=O)NC(=O)[C@H](CC(C)C)NC(=O)[C@H](CO)NC(=O)[C@H](C)NC(=O)CCCC[C@@H]1SC[C@@H]2NC(=O)N[C@@H]21)C(C)C)C(C)C)C(=O)N[C@H](C(=O)N[C@@H](CCSC)C(=O)N1CCC[C@H]1C(=O)N[C@@H](C)C(=O)N[C@@H](CCCNC(=N)N)C(=O)N[C@@H](CCCNC(=N)N)C(=O)N[C@H](C(=O)N1CCC[C@H]1C(=O)N[C@@H](Cc1c[nH]cn1)C(=O)N[C@H](C(=O)N[C@@H](CCC(N)=O)C(N)=O)C(C)C)[C@@H](C)O)C(C)C
notes: also called synthetic peptide corresponding to residues 95-117 of human plectin

affinity of interaction with Siah (in words) (Siah): lower affinity
B2: SIP: Siah-interacting protein (SIP) (protein, UniProt Q9HB71 2-228, looked up)
Calcyclin-binding protein: ASEELQKDLEEVKVLLEKATRKRVRDALTAEKSKIETEIKNKMQQKSQKKAELLDNEKPAAVVAPITTGYTVKISNYGWDQSDKFVKIYITLTGVHQVPTENVQVHFTERSFDLLVKNLNGKSYSMIVNNLLKPISVEGSSKKVKTDTVLILCRKKVENTRWDYLTQVEKECKEKEKPSYDTETDPSEGLMNVLKKIYEDGDDDMKRTINKAWVESREKQAKGDTEF

affinity of interaction with Siah (in words) (Siah): lower affinity
B3: OBF-1: Oct-binding factor 1 (OBF-1) (protein, UniProt Q16633 1-256, looked up)
POU domain class …: MLWQKPTAPEQAPAPARPYQGVRVKEPVKELLRRKRGHASSGAAPAPTAVVLPHQPLATYTTVGPSCLDMEGSVSAVTEEAALCAGWLSQPTPATLQPLAPWTPYTEYVPHEAVSCPYSADMYVQPVCPSYTVVGPSSVLTYASPPLITNVTTRSSATPAVGPPLEGPEHQAPLTYFPWPQPLSTLPTSTLQYQPPAPALPGPQFVQLPISIPEPVLQDMEDPRRAASSLTIDKLLLEEEDSDAYALNHTLSVEGF

average ratio of Siah binding domain to GST-PHYL108-130 residues (stoichiometry) (GST-PHYL108-130): 2.34 mol/mol
B4: Siah1a binding domain (purified tryptic fragment) (other, mouse, UniProt P61092 90-282, looked up)
chain: VANSVLFPCKYASSGCEITLPHTEKAEHEELCEFRPYSCPCPGASCKWQGSLDAVMPHLMHQHKSITTLQGEDIVFLATDINLPGAVDWVMMQSCFGFHFMLVLEKQEKYDGHQQFFAIVQLIGTRKQAENFAYRLELNGHRRRLTWEATPRSIHEGIATAIMNSDCLVFDTSIAQLFAENGNLGINVTISMC
modifications: two 2-mercaptoethanol adducts on cysteines in the purified form (21,838 Da; 21,685 Da when reduced)
notes: Dimer by size exclusion chromatography and in the crystal; Start residue must be found by locating VANSV on Siah1a; also called Siah1a SBD
binding result [2]: binds

Kd [3]: 180 nM
Molecule: Biotin-QQERTKLRPVAMVRPTVRVQPQL (also called synthetic PHYL peptide) [biotinylated PHYL108-130 peptide]
